Each block holds one molecule with its values, some of them ahead of it.
How the values were obtained:
[1] = biological target: human insulin receptor extracellular domain (HIR ECD) (human) (UniProt P06213); test: ELISA, HIR ECD plated, detection with biotinylated goat anti-human IgG
[2] = biological target: human insulin receptor extracellular domain (HIR ECD) (human) (UniProt P06213); test: ELISA, HIR ECD plated
[3] = biological target: T1, human insulin receptor extracellular domain (HIR ECD) (human, UniProt P06213 28-956, limits assumed); test: ELISA, HIR ECD plated on Nunc-Maxisorb wells, detection with biotinylated goat anti-human IgG
T1 construct: extracellular domain; Purified on a wheat germ agglutinin column from serum free medium of CHO cells permanently transfected with the HIR ECD (Coloma et al. 2000)
Protocol: (§1) The affinity of the fusion protein for the HIR extracellular domain (ECD) was determined with an ELISA. CHO cells permanently transfected with the HIR ECD were grown in serum free media (SFM), and the HIR ECD was purified with a wheat germ agglutinin affinity column, as previously described in Coloma et al. (2000) Pharm Res, 17:266-274. The HIR ECD was plated on Nunc-Maxisorb 96 well dishes and the binding of the HIR Ab, or the HIR Ab-IDS fusion protein, to the HIR ECD was detected with a biotinylated goat anti-human IgG (H+L) secondary antibody, followed by avidin and biotinylated peroxidase (Vector Labs, Burlingame, CA). The concentration of either HIR Ab or HIR Ab-IDS fusion protein that gave 50% maximal binding was determined with a non-linear regression analysis.

[4] = biological target: T1, human insulin receptor extracellular …; test: ELISA, HIR ECD plated, same methods as for FIG. 11
Protocol: as §1

- EC50 [1]: 4800 pM
- reduction in receptor binding affinity (against the HIR Ab) [2]: 95%
Molecule: GUSB-HIR Ab fusion protein (GUSB fused to the amino terminus of the HIR Ab heavy chain) (from UniProt P08236 23-633)

- EC50 [3]: 320 pM
- EC50 [4]: 410 pM
B1: chimeric HIRMAb (chimeric monoclonal antibody to the human insulin receptor) (antibody, human IgG1, kappa, V domains shown)
VH: QVQLQQSGPELVKPGALVKISCKASGYTFTNYDIHWVKQRPGQGLEWIGWIYPGDGSTKYNEKFKGKATLTADKSSSTAYMHLSSLTSEKSAVYFCAREWAYWGQGTLVTVSA
VL: DIQMTQSPSSLSASLGERVSLTCRASQDIGGNLYWLQQGPDGTIKRLIYATSSLDSGVPKRFSGSRSGSDYSLTISSLESEDFVDYYCLQYSSSPWTFGGGTKMEIKR
notes: Human IgG1 constant region, kappa light chain; also called HIR Ab; chimeric HIR Ab

— patent US20180251535A1 (ARMAGEN, published 2018)
